Measured values as given in patent US20260209334A1 (MAX PLANCK GESELLSCHAFT ZUR F RDERUNG DER WISSENSCHAFTEN E V, published 2026).
Numbering of substitutions follows the chain as printed. Each block holds one binder with its values, some of them ahead of it.

Tests used:
[1] = target: T1, human IL-17A with C-terminal Avi-tag, biotinylated, immobilized on BLI sensors (human, UniProt Q16552 24-155, biotin on the C-terminal Avi-tag (BirA)); assay: BLI, biotinylated IL-17A immobilized on streptavidin sensors, monovalent VHH as analyte (25, 50, 100 nM), mass transport fit
T1 construct: also called biotinylated IL-17A; not shown: C-terminal Avi-tag

[2] = target: T2, human IL-17A homodimer, bacterially expressed construct (residues 40-155 with GSEDS spacer) (human, UniProt Q16552 40-155); assay: BLI, biotinylated VHH immobilized on streptavidin sensors, IL-17 as analyte (10, 20, 40 nM), mass transport fit; apparent value, avidity possible;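 further: wavelength shift (nm) signal, 800 s association then 800 s dissociation, reference from parallel sensors without VHH, avidity from immobilized VHH may lower apparent off-rates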
T2 chain: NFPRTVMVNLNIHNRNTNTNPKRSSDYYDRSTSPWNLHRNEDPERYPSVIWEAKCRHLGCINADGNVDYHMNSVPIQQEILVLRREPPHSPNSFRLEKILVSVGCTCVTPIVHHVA

[3] = target: T3, human IL-17F homodimer, bacterially expressed construct (residues 39-163 with GSEGE linker) (human, UniProt Q96PD4 39-163); assay: as above
T3 construct: also called IL-17F dimer
T3 chain: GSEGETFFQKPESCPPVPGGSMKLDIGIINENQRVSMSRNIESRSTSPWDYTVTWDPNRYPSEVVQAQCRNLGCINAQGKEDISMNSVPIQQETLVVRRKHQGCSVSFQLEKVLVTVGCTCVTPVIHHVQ

[4] = target: T4, human IL-17A/F heterodimer, bacterially expressed construct (human, UniProt Q16552 40-155; Q96PD4 39-163, limits assumed); assay: as above
T4 construct: IL-17A unit with N68D, IL-17F unit with N83D and C137S, both with GSEDS spacer; already in the entries

[5] = target: recombinant human IL-17A (produced in HEK cells, Proteintech HZ-1113) (human, UniProt Q16552 24-155); assay: cell-based or functional assay
[6] = target: T5, recombinant human IL-17F (produced in HEK cells, Proteintech HZ-1116) (human, UniProt Q96PD4 31-163); assay: cell-based or functional assay
T5 sequence (looked up): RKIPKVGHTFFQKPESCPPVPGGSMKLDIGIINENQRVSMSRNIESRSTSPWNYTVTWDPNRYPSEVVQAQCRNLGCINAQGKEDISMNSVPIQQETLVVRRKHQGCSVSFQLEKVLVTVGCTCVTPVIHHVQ

[7] = target: recombinant human IL-17A/F (produced in CHO cells, R&D Systems 5837-IL) (human, UniProt Q16552 24-155; Q96PD4 31-163, limits assumed); assay: cell-based or functional assay
[8] = target: T1, human IL-17A with C-terminal Avi-tag, …; assay: BLI, biotinylated IL-17A immobilized, monovalent VHH as analyte
[9] = target: T6, human IL-17F with C-terminal Avi-tag, biotinylated, immobilized on BLI sensors (human, UniProt Q96PD4 31-163, biotin on the C-terminal Avi-tag (BirA)); assay: BLI, biotinylated IL-17F immobilized, monovalent VHH as analyte
T6 construct: also called biotinylated IL-17F; not shown: C-terminal Avi-tag
T6 sequence: T5 sequence (looked up)

[10] = target: T4, human IL-17A/F heterodimer, bacterially …; assay: BLI, VHH immobilized, IL-17 as analyte; apparent KD with avidity; µM as printed (Table 3 uses pM)
[11] = target: T1, human IL-17A with C-terminal Avi-tag, …; assay: BLI, biotinylated IL-17A immobilized, monovalent VHH as analyte; 2:1 heterogenous model, high affinity component
[12] = target: T6, human IL-17F with C-terminal Avi-tag, …; assay: BLI, biotinylated IL-17F immobilized, monovalent VHH as analyte; 2:1 heterogenous model, high affinity component
[13] = target: T1, human IL-17A with C-terminal Avi-tag, …; assay: BLI, biotinylated IL-17A immobilized on streptavidin sensors, monovalent VHH as analyte (20, 100 nM), 2:1 heterogenous fit, low affinity component

Sequence of recombinant human IL-17A/F (produced in CHO cells, R&D Systems 5837-IL) (Q16552 24-155 limits assumed, chain 1 of 2, one chain of several): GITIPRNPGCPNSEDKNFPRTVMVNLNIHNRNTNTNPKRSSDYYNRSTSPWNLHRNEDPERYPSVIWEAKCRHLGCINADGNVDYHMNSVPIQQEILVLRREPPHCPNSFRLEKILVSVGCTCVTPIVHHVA
Sequence of recombinant human IL-17A (produced in HEK cells, Proteintech HZ-1113) (Q16552 24-155 limits assumed): as the sequence (Q16552 24-155 limits assumed, chain 1 of 2, one chain of several) above

Kd [1]: 1 nM
B1: Re42H11 (VHH)
VHH: QVQLVESGGGLVQAGGSLRLSCAASGLTASSYAMGWFRQAPGKEREFVAAISWISGGTKYADSVKGRFTMSRDNAKKQVYLEMNSLKPEDTAVYYCNDMPYGLDTRMDEYAYWGQGTQVTVSS
notes: Class A, first generation; For the crystal it was made with a His14-ScSUMO tag that was cleaved off

Kd [2]: ≤ 0.01 nM
koff [2]: ≤ 1e-07 s⁻¹
kon [2]: 120000 M⁻¹ s⁻¹
Kd [3]: ≤ 0.01 nM
koff [3]: ≤ 1e-07 s⁻¹
kon [3]: 260000 M⁻¹ s⁻¹
Kd [4]: ≤ 0.01 nM
koff [4]: ≤ 1e-07 s⁻¹
kon [4]: 340000 M⁻¹ s⁻¹
B2: Re42B03 with C-terminal Avi-Biotin-tag, biotinylated (VHH)
VHH: B1 VHH with A29G, A61T, G66D, N74Y, A111V
modifications: biotin on the C-terminal Avi-tag (BirA)
notes: not shown: C-terminal Avi-Biotin-tag

Kd [2]: ≤ 0.01 nM
koff [2]: ≤ 1e-07 s⁻¹
kon [2]: 120000 M⁻¹ s⁻¹
Kd [3]: ≤ 0.01 nM
koff [3]: ≤ 1e-07 s⁻¹
kon [3]: 270000 M⁻¹ s⁻¹
Kd [4]: ≤ 0.01 nM
koff [4]: ≤ 1e-07 s⁻¹
kon [4]: 360000 M⁻¹ s⁻¹
B3: Re42H11 with C-terminal Avi-Biotin-tag, biotinylated (VHH)
VHH: B1 VHH
modifications: biotin on the C-terminal Avi-tag (BirA)
notes: as for B2

Kd [1]: 0.7 nM
B4: Re42B03 (VHH)
VHH: B1 VHH with A29G, A61T, G66D, N74Y, A111V
notes: Class A, first generation

Neutralization potency, ranking from 1 = the best to 4 (HEK-Blue IL-17 reporter cells) [5]: 2 rank
Neutralization potency, ranking from 1 = the best to 4 (HEK-Blue IL-17 reporter cells) [6]: 2 rank
Neutralization potency, ranking from 1 = the best to 4 (HEK-Blue IL-17 reporter cells) [7]: 2 rank
Kd [8]: 0.13 nM
Kd [9]: 0.075 nM
B5: Bm43B02 (VHH)
VHH: QVQLVESGGGLVQAGGSLNLSCVISRRTPSGYAMGWFRQASGKEREFVAAISWIGGGAVYADSVKGRFTMSRDNAKNTVYLQMNSLKPEDTAVYYCNDMPYGLDTTMDDYDYWGQGTLVTVSS
notes: Class A, second generation

Neutralization potency, ranking from 1 = the best to 4 (HEK-Blue IL-17 reporter cells) [5]: 3 rank
Neutralization potency, ranking from 1 = the best to 4 (HEK-Blue IL-17 reporter cells) [6]: 1 rank
Neutralization potency, ranking from 1 = the best to 4 (HEK-Blue IL-17 reporter cells) [7]: 1 rank
Kd [8]: 0.15 nM
Kd [9]: 0.09 nM
B6: Bm44B11 (VHH)
VHH: B5 VHH with L118Q
notes: Class A, second generation

Neutralization potency, ranking from 1 = the best to 4 (HEK-Blue IL-17 reporter cells) [5]: 1 rank
Neutralization potency, ranking from 1 = the best to 4 (HEK-Blue IL-17 reporter cells) [6]: 2 rank
Neutralization potency, ranking from 1 = the best to 4 (HEK-Blue IL-17 reporter cells) [7]: 1 rank
Kd [8]: ≤ 0.01 nM
Kd [9]: 2 nM
B7: Bm42B11 (VHH)
VHH: QVQLVESGGDLVQAGGSLRLSCSVSGLRVSSYAMGWFRQAPGKEREFVAAISWVGGDTRYADSVKGRFTMSRDNAKKQVYLEMNSLKPEDTAVYYCNDMPYGMETRMDDYASWGQGTQVTVSS
notes: Class A, second generation

Neutralization potency, ranking from 1 = the best to 4 (HEK-Blue IL-17 reporter cells) [5]: 1 rank
Neutralization potency, ranking from 1 = the best to 4 (HEK-Blue IL-17 reporter cells) [6]: 2 rank
Neutralization potency, ranking from 1 = the best to 4 (HEK-Blue IL-17 reporter cells) [7]: 1 rank
Kd [8]: 0.06 nM
Kd [9]: 4 nM
B8: Bm45G07 (VHH)
VHH: QVQLVESGGGFVQAGGSLKLSCSVSGNTFITNHMGWFRQPPGKGREFVAGIRWSDGSTFYGDSVRGRFTISGDNAKHTLYLQMNSLKPDDTAVYYCYIDSGSDRYYGQGTLVTVSS
notes: Class D, second generation

Neutralization potency, ranking from 1 = the best to 4 (HEK-Blue IL-17 reporter cells) [5]: 1 rank
Neutralization potency, ranking from 1 = the best to 4 (HEK-Blue IL-17 reporter cells) [6]: 2 rank
Neutralization potency, ranking from 1 = the best to 4 (HEK-Blue IL-17 reporter cells) [7]: 1 rank
Kd [8]: 0.05 nM
Kd [9]: 0.5 nM
Kd [1]: ≤ 0.01 nM
B9: Re42B04a (VHH)
VHH: QVQLVESGGGLVQVGGSLRLSCEVSGLPVSSYAMGWFRQAPEKEREFVAAISWIGGDSRYAHFVKGRFTISRDNAKNTVHLQMDSLKPEDTAVYYCNDMPYGLDTRMDEYEYWGQGTQVTVSS
notes: Class A; Monovalent VHH

Kd [10]: ≤ 20000 nM
Kd [2]: ≤ 0.01 nM
koff [2]: ≤ 1e-07 s⁻¹
kon [2]: 110000 M⁻¹ s⁻¹
Kd [3]: ≤ 0.01 nM
koff [3]: ≤ 1e-07 s⁻¹
kon [3]: 140000 M⁻¹ s⁻¹
Kd [4]: ≤ 0.01 nM
koff [4]: ≤ 1e-07 s⁻¹
kon [4]: 240000 M⁻¹ s⁻¹
B10: Re42B04 with C-terminal Avi-Biotin-tag, biotinylated (VHH)
VHH: B9 VHH with Q115L
modifications: biotin on the C-terminal Avi-tag (BirA)
notes: as for B2

Kd [1]: 2 nM
B11: Bm18B05 (VHH)
VHH: QVQLVESGGGLVQPGGSLRLSCAVSGRTFSSYAMGWFRRPPGKEREFVAAISWSGGDTKYADFVTDRFTISRDDAKSTVYLQMNSLKPEDTAVYYCNDMPYGLDTRMDEYEYWGQGTQVTVSS
notes: Class A, first generation

Neutralization potency, ranking from 1 = the best to 4 (HEK-Blue IL-17 reporter cells) [5]: 2 rank
Neutralization potency, ranking from 1 = the best to 4 (HEK-Blue IL-17 reporter cells) [6]: 1 rank
Neutralization potency, ranking from 1 = the best to 4 (HEK-Blue IL-17 reporter cells) [7]: 1 rank
Kd [11]: 0.8 nM
Kd [12]: ≤ 0.01 nM
KD2 [13]: 300 nM
B12: Bm42A09 (VHH)
VHH: QVQLVESGGGLVRTGGSLRLSCSVSGDISSQSAMGWYRQVPGRQRELVAMIHTTKGDTYYADSVKGRFTISRINANNTIYLQMNNLKPEDTAIYYCTHNEPGDLYMGQGTLVTVSS
notes: Class B, second generation

Neutralization potency, ranking from 1 = the best to 4 (HEK-Blue IL-17 reporter cells) [5]: 2 rank
Neutralization potency, ranking from 1 = the best to 4 (HEK-Blue IL-17 reporter cells) [6]: 4 rank
Neutralization potency, ranking from 1 = the best to 4 (HEK-Blue IL-17 reporter cells) [7]: 1 rank
Kd [8]: 0.115 nM
Kd [9]: 16 nM
B13: VHH662 (VHH)
VHH: EVQLVESGGGSVQAGDSLRLSCAASGRANSINWFGWFRQTPGKEREFVAGIRWSDAYTEYANSVKGRFTISRDNAKNTVDLQMDSLKPEDTAVYYCVLDLSTVRYWGQGTQVTVSS
notes: Control VHH of Ablynx, disclosed in WO2012156219

Neutralization potency, ranking from 1 = the best to 4 (HEK-Blue IL-17 reporter cells) [5]: 1 rank
Neutralization potency, ranking from 1 = the best to 4 (HEK-Blue IL-17 reporter cells) [6]: 1 rank
Neutralization potency, ranking from 1 = the best to 4 (HEK-Blue IL-17 reporter cells) [7]: 1 rank
Kd [11]: 0.15 nM
Kd [12]: 0.35 nM
B14: Bm42A03 (VHH)
VHH: QVQLVESGGGLVQPGGSLRLSCVASGFTFSSFAMSWYRQDPGKERKLVAAITNDGGTTFYSDLVKGRFTISRDNTKNTVYLQMNNVKPDDAAVYYCMAVRGLYGSNWYDYPFELWGQGTQVTVSS
notes: Class C, second generation

Neutralization potency, ranking from 1 = the best to 4 (HEK-Blue IL-17 reporter cells) [5]: 1 rank
Neutralization potency, ranking from 1 = the best to 4 (HEK-Blue IL-17 reporter cells) [6]: 3 rank
Neutralization potency, ranking from 1 = the best to 4 (HEK-Blue IL-17 reporter cells) [7]: 1 rank
Kd [11]: 0.2 nM
Kd [12]: 0.35 nM
B15: Bm44G10 (VHH)
VHH: B14 VHH with K43R
notes: Class C, second generation
